Results: publication PMC5121064

Target: Sec14/PH module of NF1, NanoBRET construct
Assay: FRET or BRET

Sequence of Sec14/PH module of NF1, NanoBRET construct (P21359 2-2839): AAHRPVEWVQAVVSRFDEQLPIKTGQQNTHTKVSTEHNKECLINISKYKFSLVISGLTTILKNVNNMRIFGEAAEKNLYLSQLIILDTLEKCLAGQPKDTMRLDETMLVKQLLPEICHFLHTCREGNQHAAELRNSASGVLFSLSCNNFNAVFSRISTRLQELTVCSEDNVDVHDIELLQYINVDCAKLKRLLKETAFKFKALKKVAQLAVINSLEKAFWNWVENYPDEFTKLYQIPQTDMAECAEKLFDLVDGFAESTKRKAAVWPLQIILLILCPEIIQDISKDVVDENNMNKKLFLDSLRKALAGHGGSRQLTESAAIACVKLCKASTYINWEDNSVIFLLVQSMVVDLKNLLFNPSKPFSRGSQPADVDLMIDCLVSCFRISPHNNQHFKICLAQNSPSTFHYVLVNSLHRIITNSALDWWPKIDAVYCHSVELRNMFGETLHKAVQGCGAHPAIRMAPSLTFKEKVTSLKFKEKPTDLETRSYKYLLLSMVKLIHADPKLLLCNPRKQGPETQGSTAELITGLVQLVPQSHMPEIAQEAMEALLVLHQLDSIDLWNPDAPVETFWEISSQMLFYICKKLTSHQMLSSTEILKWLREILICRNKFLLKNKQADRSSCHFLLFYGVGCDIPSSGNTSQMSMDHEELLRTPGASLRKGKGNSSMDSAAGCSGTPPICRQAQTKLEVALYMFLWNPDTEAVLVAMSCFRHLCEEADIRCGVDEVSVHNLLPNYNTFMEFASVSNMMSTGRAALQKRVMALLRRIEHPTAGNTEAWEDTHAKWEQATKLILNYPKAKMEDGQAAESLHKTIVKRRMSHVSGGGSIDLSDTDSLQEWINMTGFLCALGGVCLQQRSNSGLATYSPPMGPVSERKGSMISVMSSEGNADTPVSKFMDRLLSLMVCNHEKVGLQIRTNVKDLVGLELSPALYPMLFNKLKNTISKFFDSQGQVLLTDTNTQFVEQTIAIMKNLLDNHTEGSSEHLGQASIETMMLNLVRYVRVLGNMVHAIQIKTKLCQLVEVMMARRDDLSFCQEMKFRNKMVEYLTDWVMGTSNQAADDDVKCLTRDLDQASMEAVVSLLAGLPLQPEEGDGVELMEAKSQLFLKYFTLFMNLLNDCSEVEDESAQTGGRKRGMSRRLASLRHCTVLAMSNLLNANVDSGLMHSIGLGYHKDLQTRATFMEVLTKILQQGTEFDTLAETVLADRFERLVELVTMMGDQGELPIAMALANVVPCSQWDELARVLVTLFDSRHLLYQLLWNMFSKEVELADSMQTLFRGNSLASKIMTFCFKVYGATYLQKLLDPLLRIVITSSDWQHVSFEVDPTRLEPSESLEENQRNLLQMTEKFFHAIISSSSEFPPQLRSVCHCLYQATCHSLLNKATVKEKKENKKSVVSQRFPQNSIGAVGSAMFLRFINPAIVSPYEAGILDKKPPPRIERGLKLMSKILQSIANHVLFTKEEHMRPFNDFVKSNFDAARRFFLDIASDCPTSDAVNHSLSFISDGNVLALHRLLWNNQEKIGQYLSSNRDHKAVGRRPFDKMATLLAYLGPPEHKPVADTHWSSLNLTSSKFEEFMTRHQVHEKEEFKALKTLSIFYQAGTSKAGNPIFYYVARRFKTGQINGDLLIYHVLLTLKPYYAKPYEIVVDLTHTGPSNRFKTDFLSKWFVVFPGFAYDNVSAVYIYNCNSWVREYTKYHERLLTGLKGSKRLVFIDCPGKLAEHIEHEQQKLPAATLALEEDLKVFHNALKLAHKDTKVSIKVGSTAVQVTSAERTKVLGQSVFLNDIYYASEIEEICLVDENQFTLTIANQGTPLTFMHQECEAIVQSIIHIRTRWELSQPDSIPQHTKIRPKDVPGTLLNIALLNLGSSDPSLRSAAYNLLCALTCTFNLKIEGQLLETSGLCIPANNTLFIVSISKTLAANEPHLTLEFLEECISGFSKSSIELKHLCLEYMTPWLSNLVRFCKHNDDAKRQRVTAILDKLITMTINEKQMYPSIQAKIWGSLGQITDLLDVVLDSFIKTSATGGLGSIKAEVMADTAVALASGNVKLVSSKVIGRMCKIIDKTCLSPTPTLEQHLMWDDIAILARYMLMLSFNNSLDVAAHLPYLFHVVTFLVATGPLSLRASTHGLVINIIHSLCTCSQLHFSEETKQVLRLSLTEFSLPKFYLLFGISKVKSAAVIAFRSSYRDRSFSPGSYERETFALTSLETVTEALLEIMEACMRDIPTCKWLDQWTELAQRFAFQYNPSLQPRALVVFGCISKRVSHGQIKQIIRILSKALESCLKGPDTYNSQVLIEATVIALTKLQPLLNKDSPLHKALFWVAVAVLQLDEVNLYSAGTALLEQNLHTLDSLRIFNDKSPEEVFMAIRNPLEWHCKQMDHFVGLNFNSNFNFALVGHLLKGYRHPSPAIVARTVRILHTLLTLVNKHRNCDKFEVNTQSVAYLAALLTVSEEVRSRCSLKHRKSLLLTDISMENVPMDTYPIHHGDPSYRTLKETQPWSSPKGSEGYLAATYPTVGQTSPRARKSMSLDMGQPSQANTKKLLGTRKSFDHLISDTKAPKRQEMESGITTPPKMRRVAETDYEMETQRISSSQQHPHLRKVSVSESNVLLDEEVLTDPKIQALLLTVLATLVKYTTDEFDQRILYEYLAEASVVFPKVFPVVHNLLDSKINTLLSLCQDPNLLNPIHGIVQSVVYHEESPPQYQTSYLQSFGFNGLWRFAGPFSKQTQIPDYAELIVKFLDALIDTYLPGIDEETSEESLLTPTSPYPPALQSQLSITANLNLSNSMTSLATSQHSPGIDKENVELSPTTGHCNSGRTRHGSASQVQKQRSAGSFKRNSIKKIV

1/τ of the onset of the BRET signal after MOR activation: 0.67 s⁻¹
Substance: Gβγ, NanoBRET construct (from UniProt P62873 1-340; P59768 1-71) (complex)
